Results as given in patent publication US20140274782A1, “AFFINITY REAGENTS AND METHODS FOR DETECTION, PURIFICATION, AND PROTEOMIC ANALYSIS OF METHYLATED PROTEINS” (The Board of Trustees of the Leland Stanford Junior …, priority 2013, published 2014).

B1: CLASP2 (protein, UniProt O75122 1-1294, looked up)
CLIP-associating protein 2: MAMGDDKSFDDEESVDGNRPSSAASAFKVPAPKTSGNPANSARKPGSAGGPKVGGASKEGGAGAVDEDDFIKAFTDVPSIQIYSSRELEETLNKIREILSDDKHDWDQRANALKKIRSLLVAGAAQYDCFFQHLRLLDGALKLSAKDLRSQVVREACITVAHLSTVLGNKFDHGAEAIVPTLFNLVPNSAKVMATSGCAAIRFIIRHTHVPRLIPLITSNCTSKSVPVRRRSFEFLDLLLQEWQTHSLERHAAVLVETIKKGIHDADAEARVEARKTYMGLRNHFPGEAETLYNSLEPSYQKSLQTYLKSSGSVASLPQSDRSSSSSQESLNRPFSSKWSTANPSTVAGRVSAGSSKASSLPGSLQRSRSDIDVNAAAGAKAHHAAGQSVRSGRLGAGALNAGSYASLEDTSDKLDGTASEDGRVRAKLSAPLAGMGNAKADSRGRSRTKMVSQSQPGSRSGSPGRVLTTTALSTVSSGVQRVLVNSASAQKRSKIPRSQGCSREASPSRLSVARSSRIPRPSVSQGCSREASRESSRDTSPVRSFQPLASRHHSRSTGALYAPEVYGASGPGYGISQSSRLSSSVSAMRVLNTGSDVEEAVADALKKPARRRYESYGMHSDDDANSDASSACSERSYSSRNGSIPTYMRQTEDVAEVLNRCASSNWSERKEGLLGLQNLLKNQRTLSRVELKRLCEIFTRMFADPHGKRVFSMFLETLVDFIQVHKDDLQDWLFVLLTQLLKKMGADLLGSVQAKVQKALDVTRESFPNDLQFNILMRFTVDQTQTPSLKVKVAILKYIETLAKQMDPGDFINSSETRLAVSRVITWTTEPKSSDVRKAAQSVLISLFELNTPEFTMLLGALPKTFQDGATKLLHNHLRNTGNGTQSSMGSPLTRPTPRSPANWSSPLTSPTNTSQNTLSPSAFDYDTENMNSEDIYSSLRGVTEAIQNFSFRSQEDMNEPLKRDSKKDDGDSMCGGPGMSDPRAGGDATDSSQTALDNKASLLHSMPTHSSPRSRDYNPYNYSDSISPFNKSALKEAMFDDDADQFPDDLSLDHSDLVAELLKELSNHNERVEERKIALYELMKLTQEESFSVWDEHFKTILLLLLETLGDKEPTIRALALKVLREILRHQPARFKNYAELTVMKTLEAHKDPHKEVVRSAEEAASVLATSISPEQCIKVLCPIIQTADYPINLAAIKMQTKVIERVSKETLNLLLPEIMPGLIQGYDNSESSVRKACVFCLVAVHAVIGDELKPHLSQLTGSKMKLLNLYIKRAQTGSGGADPTTDVSGQS
B2: DNAJC2 (protein, UniProt Q99543 1-621, looked up)
DnaJ homolog subfamily C …: MLLLPSAADGRGTAITHALTSASTLCQVEPVGRWFEAFVKRRNRNASASFQELEDKKELSEESEDEELQLEEFPMLKTLDPKDWKNQDHYAVLGLGHVRYKATQRQIKAAHKAMVLKHHPDKRKAAGEPIKEGDNDYFTCITKAYEMLSDPVKRRAFNSVDPTFDNSVPSKSEAKDNFFEVFTPVFERNSRWSNKKNVPKLGDMNSSFEDVDIFYSFWYNFDSWREFSYLDEEEKEKAECRDERRWIEKQNRATRAQRKKEEMNRIRTLVDNAYSCDPRIKKFKEEEKAKKEAEKKAKAEAKRKEQEAKEKQRQAELEAARLAKEKEEEEVRQQALLAKKEKDIQKKAIKKERQKLRNSCKTWNHFSDNEAERVKMMEEVEKLCDRLELASLQCLNETLTSCTKEVGKAALEKQIEEINEQIRKEKEEAEARMRQASKNTEKSTGGGGNGSKNWSEDDLQLLIKAVNLFPAGTNSRWEVIANYMNIHSSSGVKRTAKDVIGKAKSLQKLDPHQKDDINKKAFDKFKKEHGVVPQADNATPSERFEGPYTDFTPWTTEEQKLLEQALKTYPVNTPERWEKIAEAVPGRTKKDCMKRYKELVEMVKAKKAAQEQVLNASRAKK
B3: POLDIP3 (protein, UniProt Q9BY77 2-421, looked up)
Polymerase delta-interacting …: ADISLDELIRKRGAAAKGRLNARPGVGGVRSRVGIQQGLLSQSTRTATFQQRFDARQKIGLSDARLKLGVKDAREKLLQKDARFRIKGKVQDAREMLNSRKQQTTVPQKPRQVADAREKISLKRSSPAAFINPPIGTVTPALKLTKTIQVPQQKAMAPLHPHPAGMRINVVNNHQAKQNLYDLDEDDDGIASVPTKQMKFAASGGFLHHMAGLSSSKLSMSKALPLTKVVQNDAYTAPALPSSIRTKALTNMSRTLVNKEEPPKELPAAEPVLSPLEGTKMTVNNLHPRVTEEDIVELFCVCGALKRARLVHPGVAEVVFVKKDDAITAYKKYNNRCLDGQPMKCNLHMNGNVITSDQPILLRLSDSPSMKKESELPRRVNSASSSNPPAEVDPDTILKALFKSSGASVTTQPTEFKIKL
B4: TXN (protein, UniProt P10599 2-105, looked up)
Thioredoxin: VKQIESKTAFQEALDAAGDKLVVVDFSATWCGPCKMIKPFFHSLSEKYSNVIFLEVDVDDCQDVASECEVKCMPTFQFFKKGQKVGEFSGANKEKLEATINELV
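For 3xMBT/D355N UNC Heavy in this document: proteins quantified with MaxQuant, requiring at least two unique peptides and quantification in both label directions, normalized to the mean of proteins from a digested loading control.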
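For 3xMBT/D355N UNC Light in this document: proteins quantified with MaxQuant, requiring at least two unique peptides and quantification in both label directions, normalized to the mean of proteins from a digested loading control.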
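For Relative to UNC0638 Average in this document: mass spectrometry (Q-Exactive) SILAC quantitation, DMSO/UNC0638 ratio computed after subtracting 3×MBTD355N mutant pull-down background, only proteins with at least twofold 3×MBT over mutant signal considered.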
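For Relative to UNC0638 UNC Heavy in this document: mass spectrometry (Q-Exactive) SILAC quantitation, DMSO/UNC0638 ratio computed after subtracting 3×MBTD355N mutant pull-down background, only proteins with at least twofold 3×MBT over mutant signal considered.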
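For Relative to UNC0638 UNC Light in this document: mass spectrometry (Q-Exactive) SILAC quantitation, DMSO/UNC0638 ratio computed after subtracting 3×MBTD355N mutant pull-down background, only proteins with at least twofold 3×MBT over mutant signal considered.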

The molecules below were run against T1, G9a and GLP (Homo sapiens, UniProt Q96KQ7+Q9H9B1) (assay: Triple SILAC pull-down after UNC0638 treatment of 293T cells, DMSO/UNC0638 ratio of protein captured by 3×MBT). Conditions: SILAC ratio DMSO/UNC0638 of protein pulled down with 3xMBT; UNC0638 in heavy SILAC media.
T1 sequence (Q96KQ7 2-1210 limits assumed): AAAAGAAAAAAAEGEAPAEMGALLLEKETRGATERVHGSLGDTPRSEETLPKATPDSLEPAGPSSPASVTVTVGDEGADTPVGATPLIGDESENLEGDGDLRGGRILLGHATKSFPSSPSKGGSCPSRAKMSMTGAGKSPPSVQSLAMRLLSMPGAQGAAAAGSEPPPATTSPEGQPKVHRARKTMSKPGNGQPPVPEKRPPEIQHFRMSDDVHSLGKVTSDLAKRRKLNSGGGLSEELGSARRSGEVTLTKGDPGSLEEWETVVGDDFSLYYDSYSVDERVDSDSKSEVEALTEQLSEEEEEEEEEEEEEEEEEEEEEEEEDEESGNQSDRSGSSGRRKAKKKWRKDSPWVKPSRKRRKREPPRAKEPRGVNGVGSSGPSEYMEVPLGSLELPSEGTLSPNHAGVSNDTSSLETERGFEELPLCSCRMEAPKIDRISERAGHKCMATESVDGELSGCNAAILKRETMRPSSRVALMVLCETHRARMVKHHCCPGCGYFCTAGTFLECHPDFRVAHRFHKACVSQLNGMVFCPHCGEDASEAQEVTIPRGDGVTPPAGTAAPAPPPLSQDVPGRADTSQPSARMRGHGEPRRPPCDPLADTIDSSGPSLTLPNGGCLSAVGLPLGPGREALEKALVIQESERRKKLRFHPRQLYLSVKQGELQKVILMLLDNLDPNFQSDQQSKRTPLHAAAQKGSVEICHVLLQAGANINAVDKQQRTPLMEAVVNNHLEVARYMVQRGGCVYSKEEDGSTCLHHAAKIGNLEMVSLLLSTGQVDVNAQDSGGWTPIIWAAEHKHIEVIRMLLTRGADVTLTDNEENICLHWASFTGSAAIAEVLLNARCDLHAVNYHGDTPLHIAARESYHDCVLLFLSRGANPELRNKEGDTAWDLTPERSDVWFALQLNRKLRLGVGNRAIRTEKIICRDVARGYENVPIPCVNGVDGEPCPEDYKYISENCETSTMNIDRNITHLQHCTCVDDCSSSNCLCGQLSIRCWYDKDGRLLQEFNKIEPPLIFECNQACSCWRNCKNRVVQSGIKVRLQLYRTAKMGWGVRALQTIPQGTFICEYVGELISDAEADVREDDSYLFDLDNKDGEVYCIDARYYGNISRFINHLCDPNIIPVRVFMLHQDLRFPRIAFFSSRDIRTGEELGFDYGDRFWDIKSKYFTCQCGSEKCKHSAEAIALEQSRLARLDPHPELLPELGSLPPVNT
T1 sequence (Q9H9B1 2-1298 limits assumed): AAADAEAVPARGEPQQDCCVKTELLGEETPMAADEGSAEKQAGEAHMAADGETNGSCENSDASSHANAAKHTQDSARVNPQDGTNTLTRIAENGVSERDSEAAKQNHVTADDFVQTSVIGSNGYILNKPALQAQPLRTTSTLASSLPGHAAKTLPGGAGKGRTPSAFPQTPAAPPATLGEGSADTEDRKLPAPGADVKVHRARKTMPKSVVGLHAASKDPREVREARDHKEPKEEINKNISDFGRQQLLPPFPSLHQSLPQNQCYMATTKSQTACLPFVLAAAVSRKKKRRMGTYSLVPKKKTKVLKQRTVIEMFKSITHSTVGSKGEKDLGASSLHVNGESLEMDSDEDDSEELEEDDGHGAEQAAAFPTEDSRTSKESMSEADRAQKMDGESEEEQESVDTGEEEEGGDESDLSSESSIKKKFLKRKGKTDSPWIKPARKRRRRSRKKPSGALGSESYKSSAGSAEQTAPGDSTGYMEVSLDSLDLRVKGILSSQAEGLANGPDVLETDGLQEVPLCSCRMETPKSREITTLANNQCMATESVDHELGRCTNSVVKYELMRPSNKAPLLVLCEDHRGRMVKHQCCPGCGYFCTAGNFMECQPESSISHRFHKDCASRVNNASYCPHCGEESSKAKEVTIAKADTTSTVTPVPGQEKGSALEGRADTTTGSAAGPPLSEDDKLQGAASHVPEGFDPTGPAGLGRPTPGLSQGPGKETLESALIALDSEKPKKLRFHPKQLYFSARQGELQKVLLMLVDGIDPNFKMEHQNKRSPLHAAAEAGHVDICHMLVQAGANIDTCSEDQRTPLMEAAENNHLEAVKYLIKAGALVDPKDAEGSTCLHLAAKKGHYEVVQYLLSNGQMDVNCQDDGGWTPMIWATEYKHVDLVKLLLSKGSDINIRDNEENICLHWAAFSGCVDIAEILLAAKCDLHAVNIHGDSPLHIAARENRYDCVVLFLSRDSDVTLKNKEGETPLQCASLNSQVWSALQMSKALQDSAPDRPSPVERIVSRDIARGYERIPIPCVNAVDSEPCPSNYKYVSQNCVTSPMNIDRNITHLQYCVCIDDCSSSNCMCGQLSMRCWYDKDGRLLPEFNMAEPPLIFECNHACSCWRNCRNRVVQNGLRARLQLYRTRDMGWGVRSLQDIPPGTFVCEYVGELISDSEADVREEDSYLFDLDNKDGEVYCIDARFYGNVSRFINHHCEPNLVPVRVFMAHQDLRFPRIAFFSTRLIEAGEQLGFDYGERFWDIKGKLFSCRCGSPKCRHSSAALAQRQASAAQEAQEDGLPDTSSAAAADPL
Format: cell-based
Design: endogenous in cells; host or cells: HEK 293T
B1 was tested, and the “Relative to UNC0638 UNC Heavy” value was 0.45 log base 2.
In the case of B2, the “Relative to UNC0638 UNC Heavy” value is reported as 0.28 log base 2.
In the case of B3, the “Relative to UNC0638 UNC Heavy” value is reported as 0.39 log base 2.
B4 was tested, and the “Relative to UNC0638 UNC Heavy” value was 0.14 log base 2.

Same assay, conditions: SILAC ratio DMSO/UNC0638 of protein pulled down with 3xMBT; UNC0638 in light SILAC media
For B1, the “Relative to UNC0638 UNC Light” value was 0.19 log base 2.
B2 was tested, and the “Relative to UNC0638 UNC Light” value was 0.33 log base 2.
With B3 the “Relative to UNC0638 UNC Light” value was 0.14 log base 2.
B4 was tested, and the “Relative to UNC0638 UNC Light” value was 0.38 log base 2.

Same assay, conditions: average of UNC Light and UNC Heavy experiments
With B1 the “Relative to UNC0638 Average” value was 0.32 log base 2.
B2 was tested, and the “Relative to UNC0638 Average” value was 0.30 log base 2.
For B3, the “Relative to UNC0638 Average” value was 0.26 log base 2.
With B4 the “Relative to UNC0638 Average” value was 0.26 log base 2.

The molecules below were run on 3×MBT domain of L3MBTL1 (assay: Triple SILAC pull-down, 3xMBT/3xMBTD355N ratio (cytoplasmic, nuclear and chromatin fractions of 293T cells)). Conditions: SILAC ratio, pull-down 3xMBT vs 3xMBTD355N; experiment with UNC0638 in heavy SILAC media.
Format: binding, human
With B1 the “3xMBT/D355N UNC Heavy” value was 2.43 log base 2.
With B2 the “3xMBT/D355N UNC Heavy” value was 2.18 log base 2.
In the case of B3, the “3xMBT/D355N UNC Heavy” value is reported as 2.51 log base 2.
For B4, the “3xMBT/D355N UNC Heavy” value was 1.75 log base 2.

Same assay, conditions: SILAC ratio, pull-down 3xMBT vs 3xMBTD355N; experiment with UNC0638 in light SILAC media
B1 was tested, and the “3xMBT/D355N UNC Light” value was 2.10 log base 2.
B2 was tested, and the “3xMBT/D355N UNC Light” value was 3.04 log base 2.
In the case of B3, the “3xMBT/D355N UNC Light” value is reported as 2.76 log base 2.
B4 was tested, and the “3xMBT/D355N UNC Light” value was 1.93 log base 2.
